How the values were obtained:
[1] = system: Botrytis cinerea; assay: Botrytis cinerea necrosis areas on treated vine leaves; type: in vivo, Botrytis cinerea on Vitis vinifera; conditions: day 8, control 43 mm^2 (FIG. 12D)
Text: (§1) The present inventors also carried out tests aimed at determining the effects of exogenous application of the peptides of the invention, at picomolar and femtomolar concentrations, against the development of the necrotrophic fungus on Solanum melongena (eggplant) plants (FIG. 12C) and Vitis vinifera (vine) plants (FIG. 12D). […] The positive effect of the treatment was statistically significant from day 3 of inoculation of the pathogen to day 8 where values of 11 mm^2 were reached on the control leaves, unlike the treated leaves where values of 8.4 and 6.0 mm^2 were recorded on leaves treated with the peptides PS1-70 and PS1-120 at a concentration of 100 pM, and values of 6.2 and 4.10 mm^2 were recorded on leaves treated with said peptides at a concentration of 100 fM (FIG. 12C). Similar results were obtained on vine plants (FIG. 12D). The positive effect of the treatment was already statistically significant from day 1 of inoculation of the pathogen to day 8 where values of 43 mm^2 were reached on the control leaves, and values of 16.7 and 13.6 mm^2, respectively, were reached on leaves treated with the peptides PS1-70 and PS1-120 at a concentration of 100 pM, and values of 12 and 11.8 mm^2 were reached on leaves treated with said peptides at a concentration of 100 fM (FIG. 12D). Similar results were obtained on olive trees.

[2] = system: Botrytis cinerea; assay: Botrytis cinerea necrosis areas on treated eggplant leaves; type: in vivo, Botrytis cinerea on Solanum melongena; conditions: day 8, control 11 mm^2 (FIG. 12C)
Text: as §1

[3] = Biometric parameters of tomato plants irrigated with peptides; type: in vivo; conditions: 100 fM; for root surface (root area): 14 days of salt stress 150 mM, 15 days after irrigation (FIG. 20A); for growth (fresh weight) of the aerial part: absence of salt (FIG. 20B)
Method: FIG. 20 illustrates the effect of irrigation treatment with the peptides PS1-70, PS1-120 and SEQ ID NO.5 at a concentration of 100 fM on the biometric parameters of the tomato plant. […] The asterisks indicate the statistical significance of the data by Student's t-test (*p<0.05). A few biometric parameters are shown in FIG. 20, measured after 14 days of continuous salt stress (150 mM) and 15 days after irrigation with the peptides PS1-70, PS1-120 and SEQ ID NO.5 at 100 fM concentrations, and the respective controls.

[4] = system: CAT2, SAM and APX2 genes; assay: Salt stress gene expression in tomato plants irrigated with 100 fM peptides; type: in vivo; conditions: femtomolar; for activation of salt stress-responsive genes: 8 days after irrigation, 0 mM NaCl (FIG. 18A1, B1, C1); for tolerance to salt / induction of responsive genes: irrigated 7 days with 150 mM NaCl (FIG. 18A2, B2, C2)
Method: The analysis was carried out on the CAT2(A), SAM (B) and APX2 (C) genes. The asterisks indicate the statistical significance of the data by Student's t-test (*p<0.05; **p<0.01; ***p<0.001). […] An experiment was also set up to verify the efficiency of the peptides PS1-70, PS1-120 and SEQ ID NO.5, when administered at femtomolar concentrations, in promoting tolerance to a high salt stress condition.

[5] = system: B. cinerea; assay: Seed treatment: B. cinerea necrosis areas on leaves of plants born from treated tomato seeds; type: in vivo, Botrytis cinerea on tomato; conditions: leaves of 4-week-old plants born from seeds treated at 100 fM; day 8; control 11 mm^2 (FIG. 16)
Method: The mean necrosis areas were measured 1, 3 and 5 days after inoculation of the pathogen. The letters a, b indicate the statistical significance of the data (ANOVA), each letter representing a statistical group. The present inventors also assessed the protective effect conferred by the treatment with the peptides object of the invention directly on the seed. Tomato seeds were treated with a composition comprising the peptides at a concentration of 100 fM or with 1×PBS for the controls, allowed to dry and germinated in the dark on sterile adsorbent paper at 24° C. 4-week-old plant leaves were detached from the plant and inoculated with 10 μl of spore solution in the internerve spaces and near the previously marked points.

[6] = system: S. littoralis larvae; parameters: species or system Spodoptera littoralis; conditions: in vivo, po
[7] = system: Alternaria alternata; assay: Alternaria alternata necrosis areas on treated tomato leaves; type: in vivo; conditions: 100 fM
Method: For the performance of assays on the phytopathogenic Botrytis cinerea and Alternaria alternata fungi, the present inventors used spores of this microorganism obtained from cultures on solid PDA (Potato Dextrose Agar) sporulation substrate. The plates were inoculated with 20 μl of a conidial suspension at a concentration of 1×10^6 spores/ml and incubated for 15 days at 25° C. in the presence of diffused light, so as to obtain complete sporulation. The spores were then collected in 5 ml of sterile water and, in order to remove the mycelium, were filtered through glass wool, washed with sterile distilled water and collected by centrifugation at room temperature. The concentration of spores suitable for inoculation (10^5-10^7 spores/ml) was determined by the serial dilution method using a Burker cell counting chamber for spore counting.
The assay was carried out on a detached leaf by taking a compound leaf for each treated tomato plant and for each control plant. Each leaflet of the compound leaf was marked with 3 markers in order to guide the subsequent application of the spores and detection of the pathogen developing necrotic areas.
The present inventors also performed assays aimed at determining the effects of exogenous application of the peptides of the invention on tomato plants against the development of the necrotrophic Alternaria alternata fungus (FIG. 14).
The positive effect of the treatment was statistically significant from day 1 of inoculation of the pathogen to day 8 where values of 24 mm^2 were reached on the control leaves, unlike the treated leaves where values of 8.4 and 8.0 mm^2 were recorded on leaves treated with the peptides PS1-70 and PS1-120 at a concentration of 100 fM (FIG. 14A); and values of 17 mm^2 were recorded on the control leaves and values of 8.3 mm^2, 7.9 mm^2, 8.9 mm^2, and 7.8 mm^2 were recorded on leaves treated with the peptides PS1-70, SEQ ID NO.8, SEQ ID NO.3 and SEQ ID NO.5, respectively, at a concentration of 100 fM (FIG. 14B).

[8] = system: B. cinerea; type: cell-based, Botrytis cinerea
Method: 3, 5 and 8, and Trichoderma T22, (C) PS1-70 and PS1-120. The growth of the fungus was measured 24 hours after the addition of the peptides of the invention as the turbidity level of the medium (absorbance at 600 nm). The letters a, b indicate the statistical significance of the data (ANOVA), each letter representing a statistical group. Furthermore, as shown in FIGS. 22A and 22B, the growth of the B. cinerea fungus was not disrupted when the growth medium was added with the peptides PS1-70 and PS1-120 of the invention.

[9] = day 8, control 24 mm^2 (FIG. 14A)

Molecule | necrosis areas ([1]; 100 pM) | necrosis areas ([1]; 100 fM) | necrosis areas ([2]; 100 pM) | necrosis areas ([2]; 100 fM) | root surface (root area) [3] | growth (fresh weight) of the aerial part [3] | activation of salt stress-responsive genes [4] | tolerance to salt / induction of responsive genes [4] | necrosis areas [5] | direct toxic effect on survival and development of larvae [6] | necrosis areas ([7]; day 8, control 17 mm^2 (FIG. 14B)) | necrosis areas [7, 9] | growth of the B. cinerea fungus [8]
PS1-70: recombinant peptide contained in the amino-terminal region of the Prosystemin polypeptide, free of Systemin; expressed in E. coli (protein, Peptide PS1-70, recombinant peptide contained in the amino-terminal region of the Prosystemin polypeptide, free of Systemin; expressed in E. coli) MGTPSYDIKNKGDDMQEEPKVKLHHEKGGDEKEKIIEKETPSQDINNKDTISSYVLRDDTQEIPKMEHEE | 16.7 mm^2 | 12 mm^2 | 8.4 mm^2 | 6.2 mm^2 | greater root surface | able to promote the growth of the aerial part of the plant | able to activate a series of salt stress-responsive genes | more salt-tolerant than the untreated control plants | 7.1 mm^2 | no effect on their survival and development | 8.3 mm^2 | 8.4 mm^2 | not disrupted
PS1-120: recombinant peptide contained in the amino-terminal region of the Prosystemin polypeptide, free of Systemin; expressed in E. coli (protein, Peptide PS1-120, recombinant peptide contained in the amino-terminal region of the Prosystemin polypeptide, free of Systemin; expressed in E. coli) MGTPSYDIKNKGDDMQEEPKVKLHHEKGGDEKEKIIEKETPSQDINNKDTISSYVLRDDTQEIPKMEHEEGGYVKEKIVEKETISQYIIKIEGDDDAQEKLKVEYEEEEYEKEKIVEKET | 13.6 mm^2 | 11.8 mm^2 | 6.0 mm^2 | 4.10 mm^2 | greater root surface | able to promote the growth of the aerial part of the plant | able to activate a series of salt stress-responsive genes | more salt-tolerant than the untreated control plants | 7.4 mm^2 | no effect on their survival and development | – | 8.0 mm^2 | not disrupted

Reference: patent publication US20230270119A1, “BIOSTIMULANT AND BIOPROTECTIVE PEPTIDES AND THEIR USE IN AGRICULTURE” (priority 2020, published 2023)
